Measured values as given in patent publication US20210147549A1.

Experiments:
[1] = molecular target: FcγRIIa H131 (CD32a) on cells (human) (UniProt P12318); assay: TR-FRET competition (CisBio) on cells bearing labeled receptor, vs labeled competitor antibody
[2] = molecular target: FcγRIIb on cells (TR-FRET assay) (UniProt P31994); assay: as above
[3] = molecular target: FcγRIIIa V158 on cells (TR-FRET assay) (UniProt P08637); assay: as above
[4] = molecular target: human recombinant CD64 (Fc gamma receptor I) (human) (UniProt P12314); assay: SPR (Biacore T200), construct captured on Protein A, soluble CD64 as analyte
Sequence of human recombinant CD64 (Fc gamma receptor I) (human) (P12314 16-288 limits assumed): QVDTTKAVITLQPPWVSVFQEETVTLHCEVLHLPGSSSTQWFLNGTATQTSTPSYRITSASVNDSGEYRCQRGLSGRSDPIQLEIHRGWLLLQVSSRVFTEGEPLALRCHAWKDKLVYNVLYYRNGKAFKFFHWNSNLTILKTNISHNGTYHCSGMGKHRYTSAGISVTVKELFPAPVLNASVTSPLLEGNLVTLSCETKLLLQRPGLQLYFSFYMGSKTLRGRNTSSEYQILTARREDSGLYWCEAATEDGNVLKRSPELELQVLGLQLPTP

[5] = molecular target: FcγRIIIa on effector cells (Jurkat/FcγRIIIa cells, NK cells) (UniProt P08637); assay: cell-based or functional assay
Sequence of FcγRIIIa on effector cells (Jurkat/FcγRIIIa cells, NK cells) (P08637 17-254): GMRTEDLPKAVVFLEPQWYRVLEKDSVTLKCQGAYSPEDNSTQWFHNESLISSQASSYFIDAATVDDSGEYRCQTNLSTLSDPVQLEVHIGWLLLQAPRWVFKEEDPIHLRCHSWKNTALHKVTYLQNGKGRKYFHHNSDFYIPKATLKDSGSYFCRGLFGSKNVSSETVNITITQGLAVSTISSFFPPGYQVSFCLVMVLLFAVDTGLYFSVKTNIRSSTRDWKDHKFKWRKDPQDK

Sequence of FcγRIIIa V158 on cells (TR-FRET assay) (P08637 17-254 F176V limits assumed): as the sequence (P08637 17-254) above, with F160V counted along it
Sequence of FcγRIIa H131 (CD32a) on cells (human) (P12318 34-317): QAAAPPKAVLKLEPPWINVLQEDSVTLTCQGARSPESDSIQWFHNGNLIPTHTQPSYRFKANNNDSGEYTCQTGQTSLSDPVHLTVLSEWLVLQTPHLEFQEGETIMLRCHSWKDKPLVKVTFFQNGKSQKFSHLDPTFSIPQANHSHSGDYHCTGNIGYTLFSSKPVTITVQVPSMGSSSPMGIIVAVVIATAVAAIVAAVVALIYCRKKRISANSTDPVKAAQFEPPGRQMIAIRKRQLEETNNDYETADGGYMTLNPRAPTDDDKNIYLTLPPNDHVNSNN
Sequence of FcγRIIb on cells (TR-FRET assay) (P31994 43-310 limits assumed): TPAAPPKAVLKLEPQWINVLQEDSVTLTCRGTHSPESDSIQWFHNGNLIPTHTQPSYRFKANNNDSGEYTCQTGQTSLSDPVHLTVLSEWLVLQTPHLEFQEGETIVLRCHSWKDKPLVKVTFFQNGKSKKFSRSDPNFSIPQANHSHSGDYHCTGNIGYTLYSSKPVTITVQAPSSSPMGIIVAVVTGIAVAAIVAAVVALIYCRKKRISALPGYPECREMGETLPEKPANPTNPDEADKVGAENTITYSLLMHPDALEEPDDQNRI

| IC50 [1] | IC50 [2] | IC50 [3] | CD64 Valency by SPR [4] | EC50 (nM), Mean; ADCC in KILR-A549 cells with NK cells [5] | EC50 (nM), Mean; FcyRIIIa signaling in an ADCC reporter assay [5] | Substance |
| --- | --- | --- | --- | --- | --- | --- |
| 1270 nM | 3.29 µM | 428 nM | 1.5 |  |  | anti-CD20 monoclonal antibody with the CDRs of Gazyva (obinutuzumab) |
|  |  |  |  | 0.0054 nM |  | avelumab anti-PD-L1 monoclonal antibody, afucosylated |
|  |  |  | 1.3 |  | 0.049 nM | avelumab anti-PD-L1 monoclonal antibody, fucosylated (S1A-AA-Ave-001, generated in-house) |
